# US20150044226A1 (SBI BIOTECH, published 2015)
# Residue numbers refer to the chain shown, from its start.
# T1: rhesus monkey PLD4 (rhesus monkey, UniProt Q96BZ4 1-506 (human entry))
# T1 construct: also called rhesus monkey PLD4 protein
# T1 chain: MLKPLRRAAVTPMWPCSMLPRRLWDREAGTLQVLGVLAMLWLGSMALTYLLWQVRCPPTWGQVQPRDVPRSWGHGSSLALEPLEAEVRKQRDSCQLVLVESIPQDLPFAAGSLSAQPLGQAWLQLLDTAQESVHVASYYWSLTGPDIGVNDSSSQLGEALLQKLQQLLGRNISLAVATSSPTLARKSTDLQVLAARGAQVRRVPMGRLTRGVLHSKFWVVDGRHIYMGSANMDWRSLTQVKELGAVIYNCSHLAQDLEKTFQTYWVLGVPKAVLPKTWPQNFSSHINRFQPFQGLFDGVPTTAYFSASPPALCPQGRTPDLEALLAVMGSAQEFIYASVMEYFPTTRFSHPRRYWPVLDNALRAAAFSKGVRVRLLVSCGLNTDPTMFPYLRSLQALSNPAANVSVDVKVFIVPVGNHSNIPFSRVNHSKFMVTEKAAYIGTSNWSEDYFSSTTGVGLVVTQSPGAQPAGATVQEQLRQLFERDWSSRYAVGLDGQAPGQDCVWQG
# T2: human PLD4 (phospholipase D4) protein (UniProt Q96BZ4 1-506)
# T2 chain: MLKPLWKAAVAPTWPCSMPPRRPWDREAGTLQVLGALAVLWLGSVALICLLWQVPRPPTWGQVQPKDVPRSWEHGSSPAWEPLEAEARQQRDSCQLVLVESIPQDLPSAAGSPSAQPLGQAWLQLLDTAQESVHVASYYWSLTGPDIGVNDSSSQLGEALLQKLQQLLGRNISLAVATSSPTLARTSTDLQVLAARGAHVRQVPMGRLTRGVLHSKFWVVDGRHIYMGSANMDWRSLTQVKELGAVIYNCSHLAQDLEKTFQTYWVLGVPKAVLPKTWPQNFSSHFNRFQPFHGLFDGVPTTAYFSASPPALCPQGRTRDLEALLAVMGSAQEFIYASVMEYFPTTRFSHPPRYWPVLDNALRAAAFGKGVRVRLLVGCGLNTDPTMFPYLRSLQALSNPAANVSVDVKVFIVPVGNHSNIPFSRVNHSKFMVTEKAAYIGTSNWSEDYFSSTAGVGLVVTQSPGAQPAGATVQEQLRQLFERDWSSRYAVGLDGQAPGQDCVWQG
# T3: human PLD5 (human, UniProt Q8N7P1 92-536)
# T3 sequence: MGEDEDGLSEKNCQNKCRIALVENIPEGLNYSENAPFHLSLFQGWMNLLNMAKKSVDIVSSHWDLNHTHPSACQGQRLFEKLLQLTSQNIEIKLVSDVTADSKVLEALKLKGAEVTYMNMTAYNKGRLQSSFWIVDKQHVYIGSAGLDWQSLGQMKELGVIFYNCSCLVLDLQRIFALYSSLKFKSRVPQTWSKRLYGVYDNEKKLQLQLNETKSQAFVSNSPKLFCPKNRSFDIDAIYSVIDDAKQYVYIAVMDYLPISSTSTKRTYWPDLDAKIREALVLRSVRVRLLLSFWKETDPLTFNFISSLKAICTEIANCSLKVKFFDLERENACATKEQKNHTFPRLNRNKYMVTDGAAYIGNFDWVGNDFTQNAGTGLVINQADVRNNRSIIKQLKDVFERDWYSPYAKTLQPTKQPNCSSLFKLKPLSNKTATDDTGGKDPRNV
# T4: human PLD3 (human, UniProt Q8IV08 1-490)
# T4 construct: also called human PLB3 [sic]
# T4 sequence: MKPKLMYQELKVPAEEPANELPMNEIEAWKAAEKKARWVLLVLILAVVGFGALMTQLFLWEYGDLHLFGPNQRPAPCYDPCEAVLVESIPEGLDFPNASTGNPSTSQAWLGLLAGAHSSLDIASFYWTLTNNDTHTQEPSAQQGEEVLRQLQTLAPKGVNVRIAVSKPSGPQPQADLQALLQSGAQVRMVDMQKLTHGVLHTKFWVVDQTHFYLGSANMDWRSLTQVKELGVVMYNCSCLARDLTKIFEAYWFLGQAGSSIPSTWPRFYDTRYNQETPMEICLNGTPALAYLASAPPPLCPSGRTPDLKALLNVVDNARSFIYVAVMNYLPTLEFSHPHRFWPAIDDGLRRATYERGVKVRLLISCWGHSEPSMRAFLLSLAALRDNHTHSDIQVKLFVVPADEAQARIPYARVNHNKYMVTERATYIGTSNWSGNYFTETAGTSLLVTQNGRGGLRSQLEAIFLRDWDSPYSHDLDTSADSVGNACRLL
# T5: human PLD4 (phospholipase D4) protein (human, UniProt Q96BZ4 1-506)
# T5 construct: Type II transmembrane protein, 506 a.a; also called hPLD4; HuPLD4
# T5 sequence: T2 chain
# T6: cynomolgus monkey PLD4 (cynomolgus monkey, UniProt Q96BZ4 1-506 (human entry))
# T6 construct: also called cynomolgus monkey PLD4 protein; cyno PLD4
# T6 chain: T1 chain with C56R, R66K, L78P
# B1: anti-PLD4 mouse 3B4 antibody (antibody, V domains shown)
# VH: EVQLQQSGTVLSRPGASVTMSCKASGDSFTTYWMHWVKQRPGQGLEWIGAIYPGNSETSYNQKFKGKAKLTAVTSASTAYMEFTSLTNEDSAVYYCTGGYSDFDYWGQGTTLTVSS
# VL: DILMTQSPSSMSVSLGDTVSITCHASQGIRSNIGWLQQKPGKSFKGLIFHGTNLEDGVPSRFSGRGSGADYSLTINSLESEDFADYYCVQYVQFPPTFGSGTKLEIRR
# notes: Tested as hybridoma culture supernatant and as protein A purified antibody
# B2: anti-PLD4 mouse 13H11 antibody (antibody, mouse IgG2b, V domains shown)
# VH: DVQLQESGPGLVKPSQSLSLTCSVTGYSISSHYYWSWIRQFPGNRLEWMGYISYDGSNNYNPSLKNRISITRDTSKNQFFLKLNSVTTEDTATYNCAREGPLYYGNPYWYFDVWGAGTTVTVSS
# VL: DIQMTQTTSSLSASLGGSVTISCRASQDIDNYLNWYQQKPDGTVKLLIYYTSRLHSGVPSRFSGSGSGTDYSLTISNLEQEDIATYFCQQFNTLPRTFGGGTKLEIKR
# notes: Tested as hybridoma culture supernatant and as purified antibody; also called mp13H11 (hybridoma)
# B3: anti-PLD4 mouse 14C1 antibody (antibody, mouse IgG1, V domains shown)
# VH: B2 VH
# VL: B2 VL
# notes: Tested as hybridoma culture supernatant and as purified antibody
# B4: anti-PLD4 mouse 13D4 antibody (antibody, mouse IgG2b, V domains shown)
# VH: B2 VH with S30T, S36T, R45K
# VL: B2 VL with G17D, S18R, I83V
# notes: Tested as hybridoma culture supernatant and as purified antibody; also called mp13D4 (hybridoma)
# B5: anti-PLD4 mouse 11G9.6 antibody (antibody, V domains shown)
# VH: QVQLQQPGAELVKPGTSVKMSCKASGYTFTSYWMHWVKQRPGQGLEWIGDIYPGSDSTNYNEKFKSKATLTVDTSSSTAYMQLSSLTSEDSAVYYCARGGWLDAMDYWGQGTSVTVSS
# VL: B2 VL with G17D, S18R, D30S, F91G, R96W
# notes: Tested as hybridoma culture supernatant and as purified antibody; also called mp11G9.6; mp11G9.6 antibody
# B6: anti-PLD4 mouse 5B7 antibody (antibody, V domains shown)
# VH: EVQLQQSGPELVKPGASVKISCKASGYTFTDYNLHWVKQSHGKSLEWIGYIYPYNGNTGYNQKFKRKATLTVDNSSGTVYMELRSLTSEDSAVYYCARGGIYDDYYDYAIDYWGQGTSVTVSS
# VL: DIQMTQSPASLSVSVGETVAITCRASENIYSHIAWYQQKEGKSPQRLVYGATNLAHGVPSRFSGSGSGTQYSLKINSLQSEDFGSYYCQHFWGTPWTFGGGTKLEIKR
# notes: Tested as hybridoma culture supernatant and as protein A purified antibody; also called mp5B7 (hybridoma)
# B7: anti-PLD4 mouse 7B4 antibody (antibody, mouse IgG2b, V domains shown)
# VH: B6 VH
# VL: B6 VL
# notes: Tested as hybridoma culture supernatant and as purified antibody; also called mp7B4 (hybridoma)
# B8: anti-PLD4 chimeric 11G9 antibody (antibody, human IgG1, kappa, V domains shown)
# VH: B5 VH
# VL: B2 VL with G17D, S18R, D30S, F91G, R96W
# notes: Mouse 11G9.6 variable regions on human IgG1 heavy and human Ig kappa light constant regions; also called ch11G9.6; ch11G9.6 antibody
# Biological target: T1, rhesus monkey PLD4
# Assay: FACS, hybridoma culture supernatant on rhesus monkey PLD4-293T transient transfectants (FIG. 17)
row,Binder,binding result
1,B1,binds

# Biological target: T2, human PLD4 (phospholipase D4) protein
# Assay: binding to human PLD4-CT125 stable cells; apparent Kd
row,Binder,Kd [nM]
1,B2,0.057
2,B3,3.73
3,B4,0.045
4,B5,0.058
5,B6,0.056
6,B7,0.087
7,B1,2.12

# Biological target: T1, rhesus monkey PLD4
# Assay: FACS on rhesus monkey PBMC, pDC population (FIG. 18-1, 18-2)
# Protocol: PBMC of rhesus monkey from the peripheral blood (10 mL; SHIN NIPPON BIOMEDICAL LABORATORIES, LTD.), was centrifuged with specific gravity using 96% Ficoll-Paque (trademark) PLUS (GE Healthcare company, Cat No. 17-1440-02). For FACS, 5×10⁵ of cells were used per sample. The cells were washed with FACS buffer cell, and then added with 10 μL of 10% cynomolgus monkey serum diluted with FACS buffer, and reacted at 4° C. for 20 minutes. The cells were washed with FACS buffer, and then added with 100 μL of the cell culture supernatant of each hybridoma and 10 μg/mL of mouse IgG2a, κ or mouse IgG1, κ, and reacted at 4° C. for 15 minutes. The cells were washed with FACS buffer, and then added with 1 μg/mL of APC-labeled anti-mouse IgG antibody, and reacted at 4° C. for 20 minutes. The cells were washed with FACS buffer, and then reacted with 25 μL of 10 fold dilution of FITC-labeled anti-Lineage 1 antibody, PE-labeled anti-CD123 antibody, and PcrCP-Cy5.5-labeled anti-HLA-DR antibody at 4° C. for 15 minutes. The cells were washed with FACS buffer, and then resuspended in 300 μL of FACS buffer, and analyzed with FACS calibur. The used hybridoma culture supernatant was specific to PLD4, and 10 kinds of 3B4, 5B7, 7B4, 8C11, 10C3, 11D10, 13D4, 13H11, 14C1, and 11G9.6, which bound well to CAL-1 cell or human pDC, were selected. As a result thereof, 5 kinds of the hybridoma cell culture supernatants, i.e., 5B7, 7B4, 13D4, 13H11, and 14C1 specifically bound to pDC cell population of cynomolgus monkey (Lineage-CD123+HLA-DR+) (FIG. 18).
row,Binder,binding result
1,B2,binds
2,B3,binds
3,B4,binds
4,B6,binds
5,B7,binds

# Biological target: T3, human PLD5
# Assay: FACS on 293T transfectants (FIG. 8)
row,Binder,binding result
1,B8,no binding
2,B5,no binding

# Biological target: T4, human PLD3
# Assay: FACS on 293T transfectants (FIG. 8)
row,Binder,binding result
1,B8,no binding
2,B5,no binding

# Biological target: T5, human PLD4 (phospholipase D4) protein
# Assay: FACS titration (0.001 to 30 µg/mL) of purified antibody on human PLD4-CT125 cells, positive cell frequency fitted with GraphPad Prism (FIG. 19)
# Protocol: For binding ability of the purified antibody, human PLD4-CT125 expression stable cell strain was reacted to nearly 100% of the positive staining rate at low concentration to high concentration (0.001 μg/mL to 30 μg/mL) of purified PLD4 antibody concentration. The frequency of staining positive cell and the antibody were data-analyzed using Graph Pad Prism version 5 software, and the dissociation constant molar concentration (Kd value) was computed in nM unit.
row,Binder,Kd [nM]
1,B2,≤ 1
2,B3,> 1
3,B4,≤ 1
4,B5,≤ 1
5,B6,≤ 1
6,B7,≤ 1
7,B1,> 1

# Biological target: T6, cynomolgus monkey PLD4
# Assay: FACS on cynomolgus monkey PLD4-CT125 cells (FIG. 16)
row,Binder,binding result
1,B2,binds
2,B3,binds
3,B4,binds
4,B6,binds
5,B7,binds
6,B1,binds

# Biological target: T6, cynomolgus monkey PLD4
# Assay: FACS on 293T transfectant (FIG. 9)
row,Binder,binding result
1,B8,binds
